From the supplement of paper PMC10724198
± gives the standard deviation of the averaged measurements.

test system: Saccharomyces cerevisiae; assay: protein stability index of tFT-peptide fusion (C-terminal peptide) (PSI (0-1 scale)); higher = more stable (slower turnover); settings: genetic background: wild type; temperature: 30 C
Description: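 Multiplexed protein stability (MPS) profiling in S. cerevisiae. Random 12-aa peptides (tFT-X12 library) are fused to the C-terminus of a sfGFP-mCherry tandem fluorescent timer, after mCherry and a GGGS linker. Cells are FACS-sorted into 8 mCherry/sfGFP bins and deep-sequenced. The protein stability index (PSI) is the read-weighted bin average, scaled from 0 (unstable) to 1 (stable). Only peptides with >10 reads are reported; cells were grown at 30 °C in SC-His with glucose.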
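Further: PSI is a weighted mean of sequencing reads over stability bins, variants kept only with over 10 reads, mCherry proximal and sfGFP distal, peptide attached via GGGS linker.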

| Sequence | protein stability index |
| --- | --- |
| GVEVAGCPGARG | 0.655 ± 0.042 |
| GVFCHILAFLWC | 0.512 ± 0.019 |
| GVFFVRAGSVYC | 0.579 ± 0.019 |
| GVFHAWAWCCGF | 0.78 ± 0.099 |
| GVGAALDVWRRR | 0.696 ± 0.033 |
| GVGGAGIGVGMG | 0.705 ± 0.032 |
| GVGGCVMGVGRV | 0.64763 ± 0.00048 |
| GVGGFLGVVGVG | 0.5857 ± 0.0019 |
| GVGGGISGGRWG | 0.666 ± 0.088 |
| GVGGGSRGVCLG | 0.638 ± 0.094 |
| GVGGVCEMVAIK | 0.506 ± 0.028 |
| GVGLGGFGVWGV | 0.73 ± 0.074 |
| GVGLGRVWVKLG | 0.708 ± 0.06 |
| GVGLWGVGFRGG | 0.7 ± 0.034 |
| GVGSGNMEEEGQ | 0.679 ± 0.034 |
| GVGSTGAKTVRG | 0.693 ± 0.018 |
| GVGWGSRGVCLG | 0.659 ± 0.095 |
| GVLHPPARPPPL | 0.654 ± 0.024 |
| GVLVFGLGLVRD | 0.623 ± 0.027 |
| GVLVGGERRWVL | 0.699 ± 0.053 |
| GVQDEERYSRSE | 0.6563 ± 0.0063 |
| GVRATRMGGGPL | 0.706 ± 0.015 |
| GVRVRAGYDVRA | 0.6619 ± 0.0033 |
| GVSLLCLFLGSP | 0.6212 ± 0.0041 |
| GVTDRGIDCGIK | 0.658 ± 0.023 |

| Sequence | protein stability index |
| --- | --- |
| GVTNRQMAWCFS | 0.606 ± 0.071 |
| GVVGGGEDRWSV | 0.738 ± 0.032 |
| GVVGGWRGAGWR | 0.736 ± 0.064 |
| GVVGWTAGLRGG | 0.734 ± 0.045 |
| GVVLVARVTGSS | 0.662 ± 0.075 |
| GVVNSGVFGINS | 0.693 ± 0.054 |
| GVVRGEAGVIGR | 0.817 ± 0.087 |
| GVVWMSCGGWGG | 0.764 ± 0.028 |
| GVWAVGGGGGGR | 0.665 ± 0.069 |
| GVWCDIVLPGVM | 0.704 ± 0.052 |
| GVWFWRLKGEGN | 0.713 ± 0.045 |
| GVWGGVGGWGVA | 0.697 ± 0.053 |
| GVWTRTWSLQWI | 0.561 ± 0.015 |
| GWGCCWSVAWTF | 0.614 ± 0.026 |
| GWGGSTLRGVRR | 0.719 ± 0.03 |
| GWRACGRGLVGK | 0.712 ± 0.011 |
| GWRGGCRSGVPE | 0.665 ± 0.064 |
| GWRVSQVLGGDR | 0.741 ± 0.042 |
| GWRVVWAVCGHF | 0.597 ± 0.092 |
| GWSLDYGSTGDR | 0.812 ± 0.018 |
| GWSSSCTATRSA | 0.743 ± 0.045 |
| GWSWGGVRTGSC | 0.841 ± 0.092 |
| GWVNKQVVTEAH | 0.728 ± 0.085 |
| GWVPDGCVGSIG | 0.653 ± 0.069 |
| GWVREAVGFRGG | 0.687 ± 0.028 |

| Sequence | protein stability index |
| --- | --- |
| GWVVGGGRLGVV | 0.723 ± 0.095 |
| GWVVGRGRLGVV | 0.655 ± 0.028 |
| GYDEREKPVLLR | 0.753 ± 0.042 |
| GYEDTLKKILEI | 0.673 ± 0.099 |
| GYGNQLILAISN | 0.576 ± 0.021 |
| GYGRLVSSQSFR | 0.888 ± 0.16 |
| GYKLSIQGYNRK | 0.675 ± 0.014 |
| GYLFLGNMTRHN | 0.737 ± 0.016 |
| GYLLGCGCGWSG | 0.621 ± 0.034 |
| GYRKREMRGELQ | 0.678 ± 0.038 |
| GYSYTEFPPEAV | 0.708 ± 0.08 |
| HAPFPPLLVSSL | 0.625 ± 0.022 |
| HATFLPGLLTIS | 0.566 ± 0.026 |
| HDPPPPPPLPRP | 0.626 ± 0.024 |
| HDSAGVCFHYWL | 0.644 ± 0.011 |
| HEGPGTTEFLGL | 0.717 ± 0.059 |
| HFAMCSTTFVIT | 0.618 ± 0.029 |
| HFLVGPLSPLLS | 0.662 ± 0.019 |
| HGFSRFAACNGV | 0.666 ± 0.0071 |
| HGLDPRRGPSGA | 0.68426 ± 0.00044 |
| HGQGWRPTYLSI | 0.796 ± 0.1 |
| HGRGVEYGVCDN | 0.6776 ± 0.0066 |
| HIAKQSSRRRRR | 0.68 ± 0.029 |
| HICFPALKPGGA | 0.6401 ± 0.0039 |
| HIWQEADGMDTE | 0.679 ± 0.022 |

| Sequence | protein stability index |
| --- | --- |
| HKAPLLQLTADM | 0.662 ± 0.028 |
| HKGKELTNNAML | 0.678 ± 0.039 |
| HKHDAVIIGREC | 0.7024 ± 0.0042 |
| HKKATRPPTGGN | 0.604 ± 0.052 |
| HLAHVCYEVPTY | 0.568 ± 0.04 |
| HLFSLGSCLSDP | 0.731 ± 0.12 |
| HLGVLDSFLAEG | 0.629 ± 0.028 |
| HLIVPESVVHDL | 0.747 ± 0.18 |
| HLLGYSLRREFL | 0.67 ± 0.054 |
| HLPPSRPSFSAP | 0.747 ± 0.015 |
| HLPSHPSLPPAP | 0.707 ± 0.029 |
| HLSHVLLGITFV | 0.603 ± 0.026 |
| HLSPAPPPPSAP | 0.706 ± 0.11 |
| HLTCVVGRDLGI | 0.606 ± 0.015 |
| HMHTSKTFSNGP | 0.738 ± 0.093 |
| HNSTKTQSLRGT | 0.719 ± 0.016 |
| HPPHPPPLPGSP | 0.802 ± 0.076 |
| HPPHPPPSPCPP | 0.733 ± 0.034 |
| HPPPARSPPSLP | 0.741 ± 0.041 |
| HPPPFRSIPEPQ | 0.678 ± 0.019 |
| HPPVFFSPCGIL | 0.634 ± 0.033 |
| HPSARLPENRTP | 0.677 ± 0.038 |
| HPSPLHLPSPPP | 0.675 ± 0.0076 |
| HPTFARIPPIPP | 0.525 ± 0.0088 |
| HPTHTPPSTHRD | 0.7316 ± 0.0053 |

| Sequence | protein stability index |
| --- | --- |
| HPTLPPHPPPHP | 0.768 ± 0.036 |
| HPTRHPPTPPCY | 0.704 ± 0.018 |
| HQCVNLNTIKWV | 0.634 ± 0.021 |
| HQVSLVLGGYLL | 0.702 ± 0.0099 |
| HRCQRGLIARPR | 0.665 ± 0.016 |
| HRGAVRGGSEIW | 0.729 ± 0.033 |
| HRTKRPKTKRPP | 0.628 ± 0.036 |
| HRYRWPGLNSRL | 0.837 ± 0.12 |
| HSFNITSESQKI | 0.653 ± 0.0066 |
| HSLPPLRPYPSP | 0.7553 ± 0.00076 |
| HSLRLPPSVHFP | 0.6797 ± 0.004 |
| HSLRPPPPPAPT | 0.7146 ± 0.0045 |
| HSNGADTFSEGE | 0.648 ± 0.033 |
| HSPILQPSLPHP | 0.71 ± 0.022 |
| HSPPRPPFHPRF | 0.70091 ± 0.0004 |
| HSRPAAPCRSPL | 0.679 ± 0.013 |
| HSRRCDGLPGWV | 0.671 ± 0.03 |
| HSTGPRPKLGCQ | 0.827 ± 0.019 |
| HSYMFIRNTIRI | 0.6281 ± 0.0031 |
| HSYSPRSLLVDP | 0.727 ± 0.039 |
| HTGKAATRKVIK | 0.634 ± 0.024 |
| HTKNCTRAVSDR | 0.673 ± 0.085 |
| HTPPLPPPPDPT | 0.723 ± 0.061 |
| HTPPPPRHPYKH | 0.741 ± 0.055 |
| HVGEVESGGMGG | 0.707 ± 0.03 |

| Sequence | protein stability index |
| --- | --- |
| HVLFPLHPNRIP | 0.6609 ± 0.0016 |
| HVMLPFTGIGKF | 0.672 ± 0.06 |
| HVNGQWEANRRT | 0.697 ± 0.048 |
| HVPQPNTVCPHL | 0.754 ± 0.033 |
| HVTRGMTHLTLF | 0.635 ± 0.036 |
| HVTSTRGARRPS | 0.715 ± 0.019 |
| HVVSSGFLVGLG | 0.671 ± 0.039 |
| HWSMRVNRTEGG | 0.663 ± 0.055 |
| HWYFARTSTVSC | 0.5505 ± 0.0015 |
| HYLYSLLVLPPL | 0.658 ± 0.046 |
| IAATTVVRPAFC | 0.66 ± 0.0083 |
| IACPPSVIFSPH | 0.713 ± 0.058 |
| IAEFRRDKIVKR | 0.706 ± 0.07 |
| IAFFFLHIPPAF | 0.569 ± 0.076 |
| IAGKAIKNMTRR | 0.676 ± 0.052 |
| IAGRPSSGFPLL | 0.686 ± 0.066 |
| IALVFCPMNGRI | 0.686 ± 0.014 |
| IARENLNRSRFS | 0.6602 ± 0.0056 |
| IATDGARCACDP | 0.688 ± 0.022 |
| IATMSVAGGPRL | 0.677 ± 0.015 |
| ICGAGPKCCCSV | 0.635 ± 0.051 |
| ICIGRDISNQSC | 0.703 ± 0.021 |
| ICLPPVSDVLIR | 0.676 ± 0.0084 |
| ICVSGALMARAL | 0.6798 ± 0.0036 |
| IDFISSVLSYLS | 0.663 ± 0.013 |

| Sequence | protein stability index |
| --- | --- |
| IDKRWVKKGGDK | 0.64 ± 0.071 |
| IDLGWSRWGALA | 0.662 ± 0.086 |
| IDPPSLCTPPPP | 0.635 ± 0.034 |
| IDSKSPTHPLHQ | 0.71 ± 0.059 |
| IDSSLERVRQHS | 0.677 ± 0.058 |
| IDYCWLPDGYQM | 0.683 ± 0.068 |
| IECKKIDKKIKE | 0.688 ± 0.035 |
| IEIGTEEGKCTT | 0.707 ± 0.053 |
| IEKKKIDNKVKS | 0.712 ± 0.079 |
| IEKYRKNKKTGK | 0.677 ± 0.016 |
| IENKKEKKIMIE | 0.6652 ± 0.0037 |
| IETQKNNKLRRL | 0.699 ± 0.015 |
| IEVSRRDLRIHL | 0.6949 ± 0.0032 |
| IEWGPITTLTQT | 0.718 ± 0.02 |
| IFFFFHSPYFFS | 0.68 ± 0.018 |
| IFGCPEFFCFLL | 0.696 ± 0.061 |
| IFLLLHSPSSAS | 0.697 ± 0.014 |
| IFPVFHPPFVVI | 0.557 ± 0.05 |
| IFWGFSFRGWGC | 0.683 ± 0.015 |
| IFYTHRSLSGNL | 0.659 ± 0.036 |
| IGCSELSGLGGY | 0.769 ± 0.12 |
| IGCTRSREESRE | 0.689 ± 0.013 |
| IGFLGYTRSIRN | 0.617 ± 0.096 |
| IGGFGVRIYFGG | 0.627 ± 0.056 |
| IGLCGWVSGAAT | 0.7274 ± 0.0069 |

| Sequence | protein stability index |
| --- | --- |
| IGLSPICAAAYT | 0.6515 ± 0.001 |
| IGTSGFFSSQAS | 0.743 ± 0.065 |
| IIKKKKKIKRNN | 0.683 ± 0.014 |
| IKACGLRSFIKS | 0.69 ± 0.059 |
| IKIKKKKKKRHR | 0.651 ± 0.059 |
| IKIRIAANRTKY | 0.63796 ± 0.00029 |
| IKKIEKANRKTK | 0.661 ± 0.034 |
| IKKKKKKESRSS | 0.693 ± 0.065 |
| IKKKKKKKQRKQ | 0.65 ± 0.069 |
| IKKKNRKERQKK | 0.678 ± 0.015 |
| IKKTKNKETKKT | 0.676 ± 0.045 |
| IKMKRMTKIKKK | 0.745 ± 0.049 |
| IKNIKKKKSKTE | 0.702 ± 0.065 |
| IKRLNNEKSSKA | 0.676 ± 0.035 |
| IKSKERLKKRQS | 0.6679 ± 0.00067 |
| IKTQKNKQITKI | 0.705 ± 0.071 |
| IKVNAVAWLFGS | 0.582 ± 0.032 |
| ILFKSTRAICSL | 0.621 ± 0.051 |
| ILGDGRLRLISF | 0.682 ± 0.05 |
| ILILDTKPISKT | 0.7258 ± 0.006 |
| ILLFLRCFSGFF | 0.5619 ± 0.0046 |
